The results in this text go back to patent US20180028693A1.

In this assay the target is GvpA of Anabaena flos-aquae gas vesicles (GvpA-based shell of urea-stripped Ana GVs) (Anabaena flos-aquae) (UniProt P10397). Kind of assay: SDS-PAGE of ST-Ana GVs against a standard curve of GvpC-ST.
Sequence of UniProt P10397 (P10397 2-71): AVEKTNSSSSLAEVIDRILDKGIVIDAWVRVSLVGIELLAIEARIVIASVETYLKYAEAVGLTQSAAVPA

B1: GvpC-SpyTag (GvpC comprising a SpyTag fused to the C-terminus, and a His-tag fused to the C-terminus of the SpyTag) (protein)
chain: MGISLMAKIRQEHQSIAEKVAELSLETREFLSVTTAKRQEQAEKQAQELQAFYKDLQETSQQFLSETAQARIAQAEKQAQELLAFHKELQETSQQFLSATAQARIAQAEKQAQELLAFYQEVRETSQQFLSATAQARIAQAEKQAQELLAFHKELQETSQQFLSATADARTAQAKEQKESLLKFRQDLFVSIFGSGAHIVMVDAYKPTKGSGLEHHHHHH
B1 showed a SpyTag functionalities per GV of 1000 per GV.
